The target of test [1] is T1, human Igβ on human B cells (human, UniProt P40259 29-229).
T1 sequence (looked up): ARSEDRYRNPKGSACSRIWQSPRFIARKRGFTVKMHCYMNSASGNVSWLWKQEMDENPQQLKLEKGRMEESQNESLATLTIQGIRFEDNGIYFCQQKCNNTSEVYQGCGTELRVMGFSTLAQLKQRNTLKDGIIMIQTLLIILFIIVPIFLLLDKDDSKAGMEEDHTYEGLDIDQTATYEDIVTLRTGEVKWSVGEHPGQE
Nature of the test: cell-based or functional assay.

A further test deals with T2, monkey Igβ-Flag protein (monkey).
T2 chain: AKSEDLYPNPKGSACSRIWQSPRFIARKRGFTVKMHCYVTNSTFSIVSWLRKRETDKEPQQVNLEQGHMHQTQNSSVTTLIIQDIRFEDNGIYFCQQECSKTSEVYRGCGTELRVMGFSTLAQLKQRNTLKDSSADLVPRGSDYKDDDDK
The test is described as follows: antigen ELISA, Igβ-Flag coated on plate, chemiluminescence. On the procedure:
(§1) In order to measure the antigen binding activity of the humanized antibody, antigen ELISA was used. The human Igβ-Flag protein acquired in Example 1 was prepared with a tris-buffered saline (TBS; Wako Pure Chemical Industries, Ltd.) so as to have a concentration of 5000 ng/mL, added to a NUNC MaxiSorp white 384 plate (Maxisorp 384 plate: Nunc Corporation) by an amount of 15 μL per well, and then solidified at room temperature for 1 hour. The resultant was washed with TBS-T (0.05% Tween-20 containing TBS: Wako Pure Chemical Industries, Ltd.) twice, 120 μL of a blocking agent (Blocking One: Nacalai tesque, Inc.) was added thereto, the resultant was left at room temperature for 1 hour, and the solution was removed. A dilution series (8 steps with a final concentration of 0.46 ng/mL to 1 μg/mL) of respective humanized antibodies obtained in Example 3 was prepared using a dilute solution obtained by adding the same amount of the blocking agent and TBS and then added thereto by an amount of 15 μL. The resultant was left at room temperature for 1 hour, washed with a TBS-T washing liquid three times, and 20 μL of an horseradish peroxidase (HRP)-labeled rabbit anti-human Ig antibody (Dako Ltd.) which had been diluted 3000-fold with a diluted solution was added thereto. Thereafter, the resultant was left at room temperature for 1 hour and then washed with a TBS-T washing liquid three times. Next, 30 μL of BM-Chemiluminescence ELISA Substrate (POD) (Roche Diagnostics Inc.) which is a chemiluminescence detection reagent was added thereto, and the amount of chemiluminescence thereof was measured by an EnVision counter (PerkinElmer, Co., Ltd.). Using the same method, antigen ELISA assay was performed using the monkey Igβ-Flag protein acquired in Example 1. When the binding activities in respective concentrations of the test antibodies were calculated, the measuring amount of a well to which a test antibody was not added was set to 0% and the convergence value of the maximum activity of the test antibody was set to 100%. The calculated binding activities were analyzed and the EC50 values of the test antibodies were calculated by fitting a curve.

A further test has as its target T3, human Igβ-Flag protein (human, UniProt P40259 29-159, limits assumed).
T3 construct: Expressed in FreeStyle 293 cells, purified from culture supernatant with anti-Flag M2 gel; not shown: Flag tag
T3 sequence (looked up): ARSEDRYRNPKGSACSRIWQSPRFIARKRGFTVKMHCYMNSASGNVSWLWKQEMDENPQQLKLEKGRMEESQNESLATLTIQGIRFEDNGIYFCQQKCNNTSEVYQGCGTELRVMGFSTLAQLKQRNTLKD
The description is as above. On the procedure: as §1

Residue numbers refer to the chain shown, from its start.

B1: humanized antibody CL6_40m12_DDW (antibody, human IgG1, kappa, V domains shown)
VH: EVQMVESGGGLVQPGGSLRLSCAVSGFSLSSYSVHWVRQAPGKGLEWVAGIWSGGSIHYTPALSSRFTVSRDDSKNTVYLQMNSLRAEDTAVYYCARYDRYETYAMDYWGQGTLVTVSS
VL: DIQLTQSPSSLSASVGDRVTITCKASQSVDYDGDSYMNWYQQKPGKAPKLLIYAASNLESGVPSRFSGSGSGTDFTLTISSLQPEDFATYYCQQSNEDPLTFGQGTKVEIKR
notes: Humanized anti-human Igβ antibody
B1: the “proliferation rate of human B cells (anti-IgM antibody-induced) at 30 µg/mL antibody” value (shortened to “proliferation rate of human B cells”) in test [1] was 2.8%. For the same molecule, the results for the EC50 with monkey Igβ-Flag protein and with human Igβ-Flag protein were 0.183 µg/mL and 0.128 µg/mL, respectively.

B2: humanized antibody CL6_40m14_DDW (antibody, human IgG1, kappa, V domains shown)
VH: QVQMQESGPGLVRPSQTLSLTCTVSGFSLSSYSVHWVRQPPGRGLEWIGGIWSGGSIHYTPALSSRVTVLRDTSKNQVSLRLSSVTAADTAVYYCARYDRYETYAMDYWGQGSLVTVSS
VL: B1 VL with L77F, F87I
modifications: pyroglutamylation at the N terminal of the heavy chain in most of the purified antibody (glutamine of amino acid number 1 modified to pyroglutamic acid)
notes: as for B1
B2: the “proliferation rate of human B cells” value in test [1] is 20.2%. Moreover, the values for the half-maximal effective concentration (EC50) with monkey Igβ-Flag protein and with human Igβ-Flag protein were 0.106 µg/mL and 0.1 µg/mL, respectively.

B3: humanized antibody CL6_40m16_DDW (antibody, human IgG1, kappa, V domains shown)
VH: B1 VH with M4L, V37F, Q39K, V48L, A49G, F67L, D73I
VL: B1 VL with Q3V
notes: as for B1
As to B3, in test [1], the “proliferation rate of human B cells” value was determined as 23.2%. Besides, the EC50 with monkey Igβ-Flag protein is 0.118 µg/mL; in the test with human Igβ-Flag protein it was 0.132 µg/mL.

The values are drawn from patent publication US20170226207A1 (Astellas, published 2017).
